6 molecules from publication PMC5543128 can be followed below.

B1: D3 (ssDNA)
DNA: GCCTGTTGTGAGCCTCCTGTCGAAATCGGTCGTATAGGGTCGATTTGGTCGGCATTGAGCGTTTATTCTTGTCTCCC
B2: A4 (ssDNA)
DNA: GCCTGTTGTGAGCCTCCTGTCGAAAATGCTGTTGTTTGAGTATCAATCAGACCGTTGAGCGTTTATTCTTGTCTCCC
B3: D7 (ssDNA)
DNA: GCCTGTTGTGAGCCTCCTGTCGAATGCAGCATGGGGGATGTGCTCTTCCGCGTGTTGAGCGTTTATTCTTGTCTCCC
B4: A5 (ssDNA)
DNA: GCCTGTTGTGAGCCTCCTGTCGAAGTGCAGGTCTATACAGGACAGTCTTCTGATTTGAGCGTTTATTCTTGTCTCCC
B5: B4 (ssDNA)
DNA: GCCTGTTGTGAGCCTCCTGTCGAATACGCACATACTGTGTACCTTGAATTTATATTGAGCGTTTATTCTTGTCTCCC
B6: 5'-biotin B4 (ssDNA)
DNA: B5 DNA

The Kd is the concentration at which binding is half-saturated. A higher Kd goes with a looser complex.

Chain of FAM-αC-conotoxin PrXA (P0C8S5 52-83): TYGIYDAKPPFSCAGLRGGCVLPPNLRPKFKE

The first series concerns the target FAM-αC-conotoxin PrXA (Conus parius, UniProt P0C8S5 52-83). Put plainly: fluorescence anisotropy. The following applies: tags: 5,6-carboxyfluorescein (FAM). Background: Polarisation of emitted light reports the rotation of a fluorescent probe.
With B1, the dissociation constant Kd stood at 122 ± 25.3 nM.

For B2, the Kd came to 246 ± 66.6 nM.

In turn, B3 yielded a Kd of 238 ± 30.6 nM.

With B4, the Kd came out at 184 ± 69.7 nM.

B5 gave a Kd of 120 ± 21.3 nM.

For a further series, the target named is αC-conotoxin PrXA (Conus parius, UniProt P0C8S5 52-83). In words: SPR. The following applies: tags: none; label: 5' biotin.
Chain of αC-conotoxin PrXA (P0C8S5 52-83): as above
B6 displayed a Kd of 329 nM.
